Target: IgE antibodies of four Pru p 7 reactive human sera
Assay: ImmunoCAP IgE inhibition, inhibitor at 20 ug/mL in solution, rPru p 7 on solid phase, against dilution buffer control

B1: recombinant Cup s GRPb (protein)
chain: AQIDCDKECNRRCSKASLHDRCLKYCGICCEKCHCVPPGTAGNEDVCPCYAHLKNSKGGHKCP
  percent inhibition of IgE binding to rPru p 7 (fourth serum): 80%
